Test results from US20140087995A1 (published 2014).
Numbered stars: 1 amine (or outer) side, 2 acyl side, 3 side chain; on linkers, the order of the positions; unused ones are H or OH. Bridge positions count the residues as written; N and C are the ends. Side chains are listed from the residue outwards. Ends that are not written are not given here. * marks the point of attachment. C20 diacid = O=C(O)CCCCCCCCCCCCCCCCCCC(=O)*; γGlu = O=C(O)[C@H](CCC(=O)[*:2])N[*:1]; AEEA = NCCOCCOCC(=O)O

T1: human calcitonin receptor (human, UniProt P30988 25-474)
T1 sequence (looked up): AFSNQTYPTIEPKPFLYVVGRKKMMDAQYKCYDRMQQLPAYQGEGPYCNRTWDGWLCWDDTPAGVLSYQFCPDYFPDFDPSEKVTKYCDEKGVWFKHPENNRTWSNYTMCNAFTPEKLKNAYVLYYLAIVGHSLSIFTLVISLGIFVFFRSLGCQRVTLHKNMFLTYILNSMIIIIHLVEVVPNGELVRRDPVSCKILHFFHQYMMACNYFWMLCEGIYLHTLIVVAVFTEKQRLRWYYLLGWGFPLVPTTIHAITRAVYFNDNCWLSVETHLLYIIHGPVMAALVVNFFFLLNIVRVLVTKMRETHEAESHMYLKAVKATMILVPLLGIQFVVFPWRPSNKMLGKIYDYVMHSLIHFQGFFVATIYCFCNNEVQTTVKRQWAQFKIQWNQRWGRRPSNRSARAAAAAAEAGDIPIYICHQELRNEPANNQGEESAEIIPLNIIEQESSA

B1: N^ε1-[2-[2-[2-[[(4S)-4-carboxy-4-(19-carboxynonadecanoylamino)butanoyl]amino]ethoxy]ethoxy]acetyl]-[His14,Arg17,Pro21,Pro27,Pro34]-h-amylin (peptide)
peptide: K([AEEA-γGlu-C20 diacid])CNTATCATQRLAHFLRHSSPNFGAIPSSTNVGPNTY-NH2
modifications: disulfide 2-7; N-terminus assumed
SMILES: CC[C@H](C)[C@H](NC(=O)[C@H](C)NC(=O)CNC(=O)[C@H](Cc1ccccc1)NC(=O)[C@H](CC(N)=O)NC(=O)[C@@H]1CCCN1C(=O)[C@H](CO)NC(=O)[C@H](CO)NC(=O)[C@H](Cc1c[nH]cn1)NC(=O)[C@H](CCCNC(=N)N)NC(=O)[C@H](CC(C)C)NC(=O)[C@H](Cc1ccccc1)NC(=O)[C@H](Cc1c[nH]cn1)NC(=O)[C@H](C)NC(=O)[C@H](CC(C)C)NC(=O)[C@H](CCCNC(=N)N)NC(=O)[C@H](CCC(N)=O)NC(=O)[C@@H](NC(=O)[C@H](C)NC(=O)[C@@H]1CSSC[C@H](NC(=O)[C@@H](N)CCCCNC(=O)COCCOCCNC(=O)CC[C@H](NC(=O)CCCCCCCCCCCCCCCCCCC(=O)O)C(=O)O)C(=O)N[C@@H](CC(N)=O)C(=O)N[C@@H]([C@@H](C)O)C(=O)N[C@@H](C)C(=O)N[C@@H]([C@@H](C)O)C(=O)N1)[C@@H](C)O)C(=O)N1CCC[C@H]1C(=O)N[C@@H](CO)C(=O)N[C@@H](CO)C(=O)N[C@H](C(=O)N[C@@H](CC(N)=O)C(=O)N[C@H](C(=O)NCC(=O)N1CCC[C@H]1C(=O)N[C@@H](CC(N)=O)C(=O)N[C@H](C(=O)N[C@@H](Cc1ccc(O)cc1)C(N)=O)[C@@H](C)O)C(C)C)[C@@H](C)O
notes: also called compound 68
B2: N^ε1-[2-[2-[2-[[(4S)-4-carboxy-4-(19-carboxynonadecanoylamino)butanoyl]amino]ethoxy]ethoxy]acetyl]-[Lys14,Arg17,Pro21,Pro27,Pro31]-h-amylin (peptide)
peptide: K([AEEA-γGlu-C20 diacid])CNTATCATQRLAKFLRHSSPNFGAIPSSTPVGSNTY-NH2
modifications: disulfide 2-7; N-terminus assumed
SMILES: CC[C@H](C)[C@H](NC(=O)[C@H](C)NC(=O)CNC(=O)[C@H](Cc1ccccc1)NC(=O)[C@H](CC(N)=O)NC(=O)[C@@H]1CCCN1C(=O)[C@H](CO)NC(=O)[C@H](CO)NC(=O)[C@H](Cc1c[nH]cn1)NC(=O)[C@H](CCCNC(=N)N)NC(=O)[C@H](CC(C)C)NC(=O)[C@H](Cc1ccccc1)NC(=O)[C@H](CCCCN)NC(=O)[C@H](C)NC(=O)[C@H](CC(C)C)NC(=O)[C@H](CCCNC(=N)N)NC(=O)[C@H](CCC(N)=O)NC(=O)[C@@H](NC(=O)[C@H](C)NC(=O)[C@@H]1CSSC[C@H](NC(=O)[C@@H](N)CCCCNC(=O)COCCOCCNC(=O)CC[C@H](NC(=O)CCCCCCCCCCCCCCCCCCC(=O)O)C(=O)O)C(=O)N[C@@H](CC(N)=O)C(=O)N[C@@H]([C@@H](C)O)C(=O)N[C@@H](C)C(=O)N[C@@H]([C@@H](C)O)C(=O)N1)[C@@H](C)O)C(=O)N1CCC[C@H]1C(=O)N[C@@H](CO)C(=O)N[C@@H](CO)C(=O)N[C@H](C(=O)N1CCC[C@H]1C(=O)N[C@H](C(=O)NCC(=O)N[C@@H](CO)C(=O)N[C@@H](CC(N)=O)C(=O)N[C@H](C(=O)N[C@@H](Cc1ccc(O)cc1)C(N)=O)[C@@H](C)O)C(C)C)[C@@H](C)O
notes: also called compound 74
B3: N^ε1-[2-[2-[2-[[(4S)-4-carboxy-4-(19-carboxynonadecanoylamino)butanoyl]amino]ethoxy]ethoxy]acetyl]-[Ser14,Arg17,Pro21,Pro27,Pro31]-h-amylin (peptide)
peptide: K([AEEA-γGlu-C20 diacid])CNTATCATQRLASFLRHSSPNFGAIPSSTPVGSNTY-NH2
modifications: disulfide 2-7; N-terminus assumed
SMILES: CC[C@H](C)[C@H](NC(=O)[C@H](C)NC(=O)CNC(=O)[C@H](Cc1ccccc1)NC(=O)[C@H](CC(N)=O)NC(=O)[C@@H]1CCCN1C(=O)[C@H](CO)NC(=O)[C@H](CO)NC(=O)[C@H](Cc1c[nH]cn1)NC(=O)[C@H](CCCNC(=N)N)NC(=O)[C@H](CC(C)C)NC(=O)[C@H](Cc1ccccc1)NC(=O)[C@H](CO)NC(=O)[C@H](C)NC(=O)[C@H](CC(C)C)NC(=O)[C@H](CCCNC(=N)N)NC(=O)[C@H](CCC(N)=O)NC(=O)[C@@H](NC(=O)[C@H](C)NC(=O)[C@@H]1CSSC[C@H](NC(=O)[C@@H](N)CCCCNC(=O)COCCOCCNC(=O)CC[C@H](NC(=O)CCCCCCCCCCCCCCCCCCC(=O)O)C(=O)O)C(=O)N[C@@H](CC(N)=O)C(=O)N[C@@H]([C@@H](C)O)C(=O)N[C@@H](C)C(=O)N[C@@H]([C@@H](C)O)C(=O)N1)[C@@H](C)O)C(=O)N1CCC[C@H]1C(=O)N[C@@H](CO)C(=O)N[C@@H](CO)C(=O)N[C@H](C(=O)N1CCC[C@H]1C(=O)N[C@H](C(=O)NCC(=O)N[C@@H](CO)C(=O)N[C@@H](CC(N)=O)C(=O)N[C@H](C(=O)N[C@@H](Cc1ccc(O)cc1)C(N)=O)[C@@H](C)O)C(C)C)[C@@H](C)O
notes: also called compound 73
B4: N^ε1-[2-[2-[2-[[(4S)-4-carboxy-4-(19-carboxynonadecanoylamino)butanoyl]amino]ethoxy]ethoxy]acetyl]-[Thr14,Arg17,Pro21,Pro27,Pro31]-h-amylin (peptide)
peptide: K([AEEA-γGlu-C20 diacid])CNTATCATQRLATFLRHSSPNFGAIPSSTPVGSNTY-NH2
modifications: disulfide 2-7; N-terminus assumed
SMILES: CC[C@H](C)[C@H](NC(=O)[C@H](C)NC(=O)CNC(=O)[C@H](Cc1ccccc1)NC(=O)[C@H](CC(N)=O)NC(=O)[C@@H]1CCCN1C(=O)[C@H](CO)NC(=O)[C@H](CO)NC(=O)[C@H](Cc1c[nH]cn1)NC(=O)[C@H](CCCNC(=N)N)NC(=O)[C@H](CC(C)C)NC(=O)[C@H](Cc1ccccc1)NC(=O)[C@@H](NC(=O)[C@H](C)NC(=O)[C@H](CC(C)C)NC(=O)[C@H](CCCNC(=N)N)NC(=O)[C@H](CCC(N)=O)NC(=O)[C@@H](NC(=O)[C@H](C)NC(=O)[C@@H]1CSSC[C@H](NC(=O)[C@@H](N)CCCCNC(=O)COCCOCCNC(=O)CC[C@H](NC(=O)CCCCCCCCCCCCCCCCCCC(=O)O)C(=O)O)C(=O)N[C@@H](CC(N)=O)C(=O)N[C@@H]([C@@H](C)O)C(=O)N[C@@H](C)C(=O)N[C@@H]([C@@H](C)O)C(=O)N1)[C@@H](C)O)[C@@H](C)O)C(=O)N1CCC[C@H]1C(=O)N[C@@H](CO)C(=O)N[C@@H](CO)C(=O)N[C@H](C(=O)N1CCC[C@H]1C(=O)N[C@H](C(=O)NCC(=O)N[C@@H](CO)C(=O)N[C@@H](CC(N)=O)C(=O)N[C@H](C(=O)N[C@@H](Cc1ccc(O)cc1)C(N)=O)[C@@H](C)O)C(C)C)[C@@H](C)O
notes: also called compound 75
B5: N^ε1-[(4S)-4-carboxy-4-(19-carboxynonadecanoylamino)butanoyl]-[Ala14,Arg17,Pro21,Pro27,His34]-h-amylin (peptide)
peptide: K([γGlu-C20 diacid])CNTATCATQRLAAFLRHSSPNFGAIPSSTNVGHNTY-NH2
modifications: disulfide 2-7; N-terminus assumed
SMILES: CC[C@H](C)[C@H](NC(=O)[C@H](C)NC(=O)CNC(=O)[C@H](Cc1ccccc1)NC(=O)[C@H](CC(N)=O)NC(=O)[C@@H]1CCCN1C(=O)[C@H](CO)NC(=O)[C@H](CO)NC(=O)[C@H](Cc1c[nH]cn1)NC(=O)[C@H](CCCNC(=N)N)NC(=O)[C@H](CC(C)C)NC(=O)[C@H](Cc1ccccc1)NC(=O)[C@H](C)NC(=O)[C@H](C)NC(=O)[C@H](CC(C)C)NC(=O)[C@H](CCCNC(=N)N)NC(=O)[C@H](CCC(N)=O)NC(=O)[C@@H](NC(=O)[C@H](C)NC(=O)[C@@H]1CSSC[C@H](NC(=O)[C@@H](N)CCCCNC(=O)CC[C@H](NC(=O)CCCCCCCCCCCCCCCCCCC(=O)O)C(=O)O)C(=O)N[C@@H](CC(N)=O)C(=O)N[C@@H]([C@@H](C)O)C(=O)N[C@@H](C)C(=O)N[C@@H]([C@@H](C)O)C(=O)N1)[C@@H](C)O)C(=O)N1CCC[C@H]1C(=O)N[C@@H](CO)C(=O)N[C@@H](CO)C(=O)N[C@H](C(=O)N[C@@H](CC(N)=O)C(=O)N[C@H](C(=O)NCC(=O)N[C@@H](Cc1c[nH]cn1)C(=O)N[C@@H](CC(N)=O)C(=O)N[C@H](C(=O)N[C@@H](Cc1ccc(O)cc1)C(N)=O)[C@@H](C)O)C(C)C)[C@@H](C)O
notes: also called compound 93
B6: N^ε1-[(4S)-4-carboxy-4-(19-carboxynonadecanoylamino)butanoyl]-[Arg14,Arg17,Pro21,Pro27,Pro31]-h-amylin (peptide)
peptide: K([γGlu-C20 diacid])CNTATCATQRLARFLRHSSPNFGAIPSSTPVGSNTY-NH2
modifications: disulfide 2-7; N-terminus assumed
SMILES: CC[C@H](C)[C@H](NC(=O)[C@H](C)NC(=O)CNC(=O)[C@H](Cc1ccccc1)NC(=O)[C@H](CC(N)=O)NC(=O)[C@@H]1CCCN1C(=O)[C@H](CO)NC(=O)[C@H](CO)NC(=O)[C@H](Cc1c[nH]cn1)NC(=O)[C@H](CCCNC(=N)N)NC(=O)[C@H](CC(C)C)NC(=O)[C@H](Cc1ccccc1)NC(=O)[C@H](CCCNC(=N)N)NC(=O)[C@H](C)NC(=O)[C@H](CC(C)C)NC(=O)[C@H](CCCNC(=N)N)NC(=O)[C@H](CCC(N)=O)NC(=O)[C@@H](NC(=O)[C@H](C)NC(=O)[C@@H]1CSSC[C@H](NC(=O)[C@@H](N)CCCCNC(=O)CC[C@H](NC(=O)CCCCCCCCCCCCCCCCCCC(=O)O)C(=O)O)C(=O)N[C@@H](CC(N)=O)C(=O)N[C@@H]([C@@H](C)O)C(=O)N[C@@H](C)C(=O)N[C@@H]([C@@H](C)O)C(=O)N1)[C@@H](C)O)C(=O)N1CCC[C@H]1C(=O)N[C@@H](CO)C(=O)N[C@@H](CO)C(=O)N[C@H](C(=O)N1CCC[C@H]1C(=O)N[C@H](C(=O)NCC(=O)N[C@@H](CO)C(=O)N[C@@H](CC(N)=O)C(=O)N[C@H](C(=O)N[C@@H](Cc1ccc(O)cc1)C(N)=O)[C@@H](C)O)C(C)C)[C@@H](C)O
notes: also called compound 63

target: T1, human calcitonin receptor; assay: cell-based or functional assay

| Binder | hCTR funct. EC50 |
| --- | --- |
| B1 | 0.932 nM |
| B2 | 37.5 nM |
| B3 | 0.961 nM |
| B4 | 9.07 nM |
| B5 | 1.15 nM |
| B6 | 5.13 nM |
